What all share (test): AFM single-molecule force spectroscopy
Experiment [1] concerns the target T1, reovirus T1L σ3_(3)μ1_(3) heterohexamer (mammalian orthoreovirus type 1 Lang …, UniProt P07939 1-365; P11077 1-708).
T1 sequence (looked up) 1: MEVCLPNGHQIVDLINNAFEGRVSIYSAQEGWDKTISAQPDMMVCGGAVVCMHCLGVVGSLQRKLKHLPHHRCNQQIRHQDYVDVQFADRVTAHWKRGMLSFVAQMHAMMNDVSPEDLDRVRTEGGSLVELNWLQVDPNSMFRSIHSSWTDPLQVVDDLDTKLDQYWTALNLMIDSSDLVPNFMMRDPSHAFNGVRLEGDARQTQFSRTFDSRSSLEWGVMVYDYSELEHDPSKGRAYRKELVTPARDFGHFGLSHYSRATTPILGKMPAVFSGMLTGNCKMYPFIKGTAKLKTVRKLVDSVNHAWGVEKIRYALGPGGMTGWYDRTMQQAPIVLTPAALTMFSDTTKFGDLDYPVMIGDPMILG
T1 sequence (looked up) 2: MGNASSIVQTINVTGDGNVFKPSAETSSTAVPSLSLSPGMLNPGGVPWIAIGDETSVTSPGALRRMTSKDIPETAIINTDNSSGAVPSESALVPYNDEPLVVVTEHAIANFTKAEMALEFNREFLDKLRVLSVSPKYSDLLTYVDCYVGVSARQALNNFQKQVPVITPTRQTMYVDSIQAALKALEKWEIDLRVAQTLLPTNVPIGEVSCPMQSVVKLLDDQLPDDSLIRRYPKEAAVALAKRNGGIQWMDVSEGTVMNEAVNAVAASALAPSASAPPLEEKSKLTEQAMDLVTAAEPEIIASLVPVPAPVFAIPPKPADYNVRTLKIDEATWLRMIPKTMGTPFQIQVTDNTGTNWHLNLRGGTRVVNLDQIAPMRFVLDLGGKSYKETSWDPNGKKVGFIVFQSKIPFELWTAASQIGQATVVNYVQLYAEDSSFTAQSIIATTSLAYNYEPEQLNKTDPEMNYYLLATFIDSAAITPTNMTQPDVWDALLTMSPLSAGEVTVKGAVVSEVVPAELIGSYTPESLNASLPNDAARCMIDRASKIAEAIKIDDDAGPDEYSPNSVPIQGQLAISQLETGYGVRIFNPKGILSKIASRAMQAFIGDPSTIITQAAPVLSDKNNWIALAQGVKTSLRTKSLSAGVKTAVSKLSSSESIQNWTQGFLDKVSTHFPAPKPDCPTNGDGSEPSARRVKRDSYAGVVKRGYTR

The target of experiment [2] is T1, reovirus T1L σ3_(3)μ1_(3) heterohexamer. The source holds these as a separate data set.
Experiment [3] has as its target reovirus type 1 Lang (T1L) virion (mammalian orthoreovirus type 1 Lang (T1L)) (UniProt P07939).

Where two headings read alike, the source gives them in different places.

B1: His-tagged human Nogo-66 receptor 1 (amino acids 1-310) (receptor, UniProt Q9BZR6 27-310, looked up)
chain: CPGACVCYNEPKVTTSCPQQGLQAVPVGIPAASQRIFLHGNRISHVPAASFRACRNLTILWLHSNVLARIDAAAFTGLALLEQLDLSDNAQLRSVDPATFHGLGRLHTLHLDRCGLQELGPGLFRGLAALQYLYLQDNALQALPDDTFRDLGNLTHLFLHGNRISSVPERAFRGLHSLDRLLLHQNRVAHVHPHAFRDLGRLMTLYLFANNLSALPTEALAPLRALQYLRLNDNPWVCDCRARPLWAWLQKFRGSSSEVPCSLPQRLAGRDLKRLAANDLQGCA
The molecule B1 registered a koff in experiment [1] of 3.51 ± 2.02 s⁻¹. In experiment [2], this molecule showed a koff of 0.32 ± 0.21 s⁻¹ and a kon of 2.17e+06 ± 200000 M⁻¹ s⁻¹.

B2: Fc-tagged mouse NgR1 (Fc fusion)
chain: CPGACVCYNEPKVTTSCPQQGLQAVPTGIPASSQRIFLHGNRISHVPAASFQSCRNLTILWLHSNALARIDAAAFTGLTLLEQLDLSDNAQLHVVDPTTFHGLGHLHTLHLDRCGLRELGPGLFRGLAALQYLYLQDNNLQALPDNTFRDLGNLTHLFLHGNRIPSVPEHAFRGLHSLDRLLLHQNHVARVHPHAFRDLGRLMTLYLFANNLSMLPAEVLMPLRSLQYLRLNDNPWVCDCRARPLWAWLQKFRGSSSEVPCNLPQRLADRDLKRLAASDLEGCAVASGPFRPIQTSQLTDEELLSLPKCCQPDAADKASVLEPGRPASAGNALKGRVPPGDTPPGNGSGPRHINDSPFGTLPSSAEPPLTALRPGGSEPPGLPTTGPRRRPGCSRKNRTRSHCRLGQAGSGASGTGDAEGS
For B2, in experiment [3], the Kd was 93.5 nM, the koff was determined as 0.65 s⁻¹ and the kon was 6.94e+06 M⁻¹ s⁻¹.

B3: His-tagged mouse Nogo-66 receptor 1 (amino acids 1-447) (receptor, UniProt Q99PI8 27-447, looked up)
chain: B2 chain
In experiment [2], B3 had a Kd of 76.8 ± 51.8 nM, a koff of 0.23 ± 0.12 s⁻¹ and a kon of 2.99e+06 ± 460000 M⁻¹ s⁻¹.
